Literature values in paper PMC6082625.
Like-named read-outs stand apart in the source and are kept apart here.

Experiments:
Hsp90 (Homo sapiens) [1] = target: Hsp90 (Homo sapiens) (UniProt P07900)
[2] = target: J-domain protein (DnaJ) J domain (Escherichia coli) (UniProt P08622)
Hsp90 (Homo sapiens) [3] = target: Hsp90 (Homo sapiens) (UniProt P07900); remark: listed apart in the source

p23, sequence (Q15185 whole entry): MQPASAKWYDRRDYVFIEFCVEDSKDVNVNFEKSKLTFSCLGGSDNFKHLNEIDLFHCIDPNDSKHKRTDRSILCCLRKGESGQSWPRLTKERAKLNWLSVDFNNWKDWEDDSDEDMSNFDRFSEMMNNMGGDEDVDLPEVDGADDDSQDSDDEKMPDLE
J-domain protein (DnaJ) J domain (Escherichia coli), sequence (P08622 1-75): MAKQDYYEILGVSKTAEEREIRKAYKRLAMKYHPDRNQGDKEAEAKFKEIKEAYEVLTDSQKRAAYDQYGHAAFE
Hsp70 (DnaK), sequence (P0A6Y8 2-638): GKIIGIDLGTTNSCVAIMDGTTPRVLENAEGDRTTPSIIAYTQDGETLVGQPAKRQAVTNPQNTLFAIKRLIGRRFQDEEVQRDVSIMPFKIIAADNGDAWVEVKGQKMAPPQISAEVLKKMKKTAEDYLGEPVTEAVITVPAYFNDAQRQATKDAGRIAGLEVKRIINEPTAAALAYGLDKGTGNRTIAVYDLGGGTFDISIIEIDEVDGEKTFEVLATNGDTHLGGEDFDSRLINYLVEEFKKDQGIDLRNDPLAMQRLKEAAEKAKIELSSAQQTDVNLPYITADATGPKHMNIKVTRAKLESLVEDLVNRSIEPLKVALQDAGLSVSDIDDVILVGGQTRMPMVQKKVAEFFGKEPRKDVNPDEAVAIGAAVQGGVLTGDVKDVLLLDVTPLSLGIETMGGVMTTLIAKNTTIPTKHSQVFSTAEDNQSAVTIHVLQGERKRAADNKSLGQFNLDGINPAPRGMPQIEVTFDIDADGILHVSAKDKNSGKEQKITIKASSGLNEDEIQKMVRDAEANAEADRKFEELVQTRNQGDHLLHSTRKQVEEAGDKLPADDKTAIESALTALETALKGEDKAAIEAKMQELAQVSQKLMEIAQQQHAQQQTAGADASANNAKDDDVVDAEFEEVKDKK
Aha1, sequence (O95433 whole entry): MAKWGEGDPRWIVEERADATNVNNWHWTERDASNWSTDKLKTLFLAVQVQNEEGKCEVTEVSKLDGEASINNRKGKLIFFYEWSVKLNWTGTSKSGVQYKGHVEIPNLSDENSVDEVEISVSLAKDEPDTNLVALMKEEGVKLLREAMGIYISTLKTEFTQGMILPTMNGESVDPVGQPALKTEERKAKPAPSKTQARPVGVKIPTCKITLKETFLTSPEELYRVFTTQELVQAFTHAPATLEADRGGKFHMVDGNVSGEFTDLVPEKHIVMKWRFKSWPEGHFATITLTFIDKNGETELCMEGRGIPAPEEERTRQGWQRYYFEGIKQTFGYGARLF

Aha1 (from UniProt O95433)
Kd (Hsp90 (Homo sapiens) [1]): 700 nM

Hsp70 (DnaK) (from UniProt P0A6Y8)
Kd [2]: 10000 nM

p23 (from UniProt Q15185)
Kd (Hsp90 (Homo sapiens) [3]): 1000 nM
